Article PMC6160918, “Stabilization of the CD81 Large Extracellular Loop with De Novo Disulfide Bonds Improves Its Amenability for Peptide Grafting” (Pharmaceutics, 2018)
Substitutions are numbered along the chain they refer to.

B1: wild-type human CD81 large extracellular loop, P60033 113-201 (domain or fragment)
chain: FVNKDQIAKDVKQFYDQALQQAVVDDDANNAKAVVKTFHETLDCCGSSTLTALTTSVLKNNLCPSGSNIISNLFKEDCHQKIDDLFSGK
B2: hCD81 LEL variant C10 (Val169Cys/Leu174Cys) (domain or fragment, human, UniProt P60033 113-201, looked up)
chain: B1 chain with V57C, L62C
notes: human CD81, large extracellular loop, fragment Phe113-Lys201; numbering according to PDB entry 1G8Q; Excluded from further analysis because of the dimer it formed; the dimer may be a disulfide-linked one (surmise); source: HEK293-6E, transfected, 2-mL scale (prescreening)

Tests used:
[1] = molecular target: T1, wild-type human CD81 large extracellular loop (human), P60033; assay: SEC-MALS; Superdex 200 Increase 10/300 GL, PBS with 200 mM NaCl, 0.75 mL/min, 200 µg of protein at about 2 mg/mL loaded; in-line MALS (miniDAWN TREOS II); conditions: remark: other sources report otherwise
T1 chain: B1 chain

[2] = molecular target: the molecule itself; assay: not stated; prescreening of mutants expressed in HEK293-6E at a 2-mL scale; how the dimer was seen is not told

Binder | stoichiometry N [1] | stoichiometry N [2]
B1 | 2 | 
B2 |  | 2
